Assay results published in patent US20130101582A1, “Tiki1 and Tiki2, Wnt Inhibitors” (CHILDREN'S MEDICAL CENTER CORPORATION, priority 2010, published 2013).

How the values were obtained:
[1] = molecular target: T1, Wnt3a (Mus musculus, UniProt P27467); assay: Acyl-biotinyl exchange (ABE) analysis of Wnt3a produced from Tiki2-expressing cells; assay type: cell-based; set-up: expressed in transfected cells; host or cells: mouse L cells (Wnt3a-expressing); HEK293T; settings: compared to Wnt3a from control cells
T1 sequence (P27467 19-352): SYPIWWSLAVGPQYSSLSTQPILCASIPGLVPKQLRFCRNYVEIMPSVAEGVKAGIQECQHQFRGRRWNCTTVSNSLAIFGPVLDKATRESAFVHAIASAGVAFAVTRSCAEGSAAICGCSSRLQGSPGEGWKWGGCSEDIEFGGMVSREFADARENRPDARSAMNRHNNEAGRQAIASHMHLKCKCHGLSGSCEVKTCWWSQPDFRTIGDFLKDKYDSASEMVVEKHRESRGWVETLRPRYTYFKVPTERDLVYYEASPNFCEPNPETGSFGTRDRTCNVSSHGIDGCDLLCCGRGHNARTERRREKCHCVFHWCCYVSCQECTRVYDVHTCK
Source text: FIG. 6C is a gel showing the results of Acyl-biotinyl exchange (ABE) analysis of control Wnt3a or Wnt3a produced from Tiki2-expressing cells. Biotinylation of Wnt3a secreted from Tiki2-expressing cells was much reduced compared to that of Wnt3a from control cells.
Biotinylation of Wnt3a secreted in the presence of Tiki2 was much reduced compared to that of Wnt3a from control cells (FIG. 6C). This reduction of available thioester linkage indicates depalmitoylation of Wnt3a at a cysteine residue, e.g., C77, in the presence of Tiki2

[2] = molecular target: T2, LRP6N-IgG (Homo sapiens, UniProt O75581); assay: Binding of Wnt3a CM to LRP6N-IgG, protein G precipitation
T2 construct: using the extracellular domain of mouse Fz8 (mFz8CRD-IgG) or LRP6 (LRP6N-IgG)
T2 sequence (O75581 20-1370 limits assumed): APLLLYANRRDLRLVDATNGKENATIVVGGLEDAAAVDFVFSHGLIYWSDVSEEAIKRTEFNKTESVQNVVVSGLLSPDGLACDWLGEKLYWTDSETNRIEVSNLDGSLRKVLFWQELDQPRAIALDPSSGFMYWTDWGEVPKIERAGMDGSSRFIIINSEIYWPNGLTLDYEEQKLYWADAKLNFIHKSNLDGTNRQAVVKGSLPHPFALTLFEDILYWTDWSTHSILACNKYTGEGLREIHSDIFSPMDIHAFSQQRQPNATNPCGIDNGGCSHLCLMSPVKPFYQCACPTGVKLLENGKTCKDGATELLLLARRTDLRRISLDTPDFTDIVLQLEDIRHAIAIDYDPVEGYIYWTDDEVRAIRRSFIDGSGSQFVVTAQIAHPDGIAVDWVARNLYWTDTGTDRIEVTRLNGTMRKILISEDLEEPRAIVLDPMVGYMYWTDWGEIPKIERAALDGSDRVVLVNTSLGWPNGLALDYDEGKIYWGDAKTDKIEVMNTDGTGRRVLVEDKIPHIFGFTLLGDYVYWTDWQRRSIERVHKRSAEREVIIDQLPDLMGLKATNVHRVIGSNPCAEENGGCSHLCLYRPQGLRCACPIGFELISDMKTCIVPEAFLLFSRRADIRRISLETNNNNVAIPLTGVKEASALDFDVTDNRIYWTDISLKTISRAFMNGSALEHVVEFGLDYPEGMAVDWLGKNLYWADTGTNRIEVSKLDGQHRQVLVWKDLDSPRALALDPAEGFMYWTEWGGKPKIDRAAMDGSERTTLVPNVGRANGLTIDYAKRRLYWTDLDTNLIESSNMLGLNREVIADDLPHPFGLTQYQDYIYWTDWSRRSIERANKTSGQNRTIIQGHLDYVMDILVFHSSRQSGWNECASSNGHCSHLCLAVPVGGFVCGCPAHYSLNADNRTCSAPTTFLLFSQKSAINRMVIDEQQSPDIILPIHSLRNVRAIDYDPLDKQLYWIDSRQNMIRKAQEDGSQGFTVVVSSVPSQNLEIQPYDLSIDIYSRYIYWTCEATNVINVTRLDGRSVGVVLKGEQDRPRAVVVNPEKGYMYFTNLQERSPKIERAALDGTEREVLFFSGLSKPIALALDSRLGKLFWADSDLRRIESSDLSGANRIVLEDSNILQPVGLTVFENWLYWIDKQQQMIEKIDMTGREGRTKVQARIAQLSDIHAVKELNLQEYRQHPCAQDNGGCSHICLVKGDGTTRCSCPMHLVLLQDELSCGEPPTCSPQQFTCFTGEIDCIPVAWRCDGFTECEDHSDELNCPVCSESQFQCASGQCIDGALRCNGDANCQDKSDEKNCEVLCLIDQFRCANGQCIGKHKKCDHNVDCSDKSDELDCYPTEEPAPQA
Description: Wnt3a CM was incubated with LRP6N-IgG or mFz8CRD-IgG. The protein complexes were precipitated by protein G agarose and subjected for Western blotting.
As Tiki proteins are related to bacterial proteins of unknown function, it was speculated that Tiki may antagonize Wnt signaling through a novel mechanism, possibly in an enzymatic fashion. Human Tiki2 was stably expressed in L cells or Wnt3a-expressing L cells (human Tiki1 was poorly expressed in L cells). […] In fact Wnt3a CM restored beta-catenin stabilization in Wnt3a-expressing cells that also expressed Tiki2 (FIG. 5A).

[3] = molecular target: T1, Wnt3a; assay: Triton X-114 phase separation of Wnt3a secreted from Tiki-expressing cells; assay type: cell-based; set-up: expressed in transfected cells; host or cells: mouse L cells (Wnt3a-expressing); HEK293T
Source text: FIG. 6A is a gel showing that Tiki inactivates Wnt3a by regulating Wnt3a acylation/palmitoylation. A Triton X-114 phase separation experiment is shown in 6A. […] T, total; Aq, aqueous; De, detergent.
FIG. 6B is a gel showing that Wnt3a secreted from Tiki1 or Tiki2 but not GFP-expressing HEK293T cells partitioned in the aqueous phase.
C77 palmitoylation is required for Wnt3a activity (Willert, K. et al., Nature 423, 448-452 (2003)) and binding to both Fz and LRP6 (Komekado, H. et al., Genes Cells 12, 521-534 (2007); Cong, F. et al., Development 131, 5103-5115 (2004)), while S209 acylation is critical for Wnt3a secretion (Takada, R. et al., Dev Cell 11, 791-801 (2006)). Thus Tiki proteins may affect C77 palmitoylation but not S209 acylation. The palmitate adduct at C77 is the primary contributor to Wnt3a hydrophobicity because palmitoylated Wnt3a is partitioned in the Triton X-114 detergent phase whereas Wnt3a lacking the palmitate is soluble in the aqueous phase (Willert, K. et al., Nature 423, 448-452 (2003); Komekado, H. et al., Genes Cells 12, 521-534 (2007)).

Biotinylation of secreted Wnt3a in ABE assay [1]: much reduced
Binding of Wnt3a secreted from Tiki2-expressing cells to LRP6 (LRP6N-IgG) [2]: failed to bind to either Fz or LRP6
B1: Tiki2: Human Tiki2 (XP 371250/LOC388630) (SEQ ID NO:2), expressed in L or HEK293T cells (protein, listed as Homo sapiens)
chain: MHAALAGPLLAALLATARARPQPPDGGQCRPPGSQRDLNSFLWTIRRDPPAYLFGTIHVPYTRVWDFIPDNSKAAFQASTRVYFELDLTDPYTISALASCQLLPHGENLQDVLPHELYWRLKRHLDYVKLMMPSWMTPAQRGKGLYADYLFNAIAGNWERKRPVWVMLMVNSLTERDVRFRGVPVLDLYLAQQAEKMKKTTGAVEQVEEQCHPLNNGLNFSQVLFALNQTLLQQESVRAGSLQASYTTEDLIKHYNCGDLSAVIFNHDTSQLPNFINTTLPPHEQVTAQEIDSYFRQELIYKRNERMGKRVMALLRENEDKICFFAFGAGHFLGNNTVIDILRQAGLEVDHTPAGQAIHSPAPQSPAPSPEGTSTSPAPVTPAAAVPEAPSVTPTAPPEDEDPALSPHLLLPDSLSQLEEFGRQRKWHKRQSTHQRPRQFNDLWVRIEDSTTASPPPLPLQPTHSSGTAKPPFQLSDQLQQQDPPGPASSSAPTLGLLPAIATTIAVCFLLHSLGPS
Partitioning of secreted Wnt3a in Triton X-114 phase separation ([3]; HEK293T cells): partitioned exclusively in the aqueous phase
Partitioning of secreted Wnt3a in Triton X-114 phase separation ([3]; L cells): partitioned exclusively in the aqueous phase
